# Laboratory results reported in PMC4466390, “Canonical and Noncanonical Sites Determine NPT2A Binding Selectivity to NHERF1 PDZ1” (PLoS ONE, 2015).
# B1: NHERF1 PDZ1 (11–120) [human] / rhodamine-labeled 22-residue carboxy-terminal NPT2A peptide [modified: 5-(and 6)-carboxytetramethylrhodamine (rhodamine label), coupled to the peptidyl resin after synthesis; 5-(and … (parent)
# chain 1: LPRLCCLEKGPNGYGFHLHGEKGKLGQYIRLVEPGSPAEKAGLLAGDRLVEVNGENVEKETHQQVVSRIRAALNAVRLLVVDPETDEQLQKLGVQVREELLRAQEAPGQA
# chain 2: ELPPATPSPRLALPAHHNATRL
# Variants of: B1
# Assay: fluorescence polarisation
# Conditions: with rhodamine-labeled 22-residue carboxy-terminal NPT2A peptide [modified: 5-(and 6)-carboxytetramethylrhodamine (rhodamine label), labeled NPT2A peptide 1 µM, read at the highest PDZ1 concentration, est. ~120 µM, parent: 0.11, read off a plot
row,Variant,response
1,chain 1 LPRLCCLEKGPNGYGFHLHGEKGKLGQYIRLVDPGSPAEKAGLLAGDRLVEVNGENVEKETHQQVVSRIRAALNAVRLLVVDPETDEQLQKLGVQVREELLRAQEAPGQA,0.096
2,chain 1 LPRLCCLEKGPNGYGFNLHGEKGKLGQYIRLVEPGSPAEKAGLLAGDRLVEVNGENVEKETHQQVVSRIRAALNAVRLLVVDPETDEQLQKLGVQVREELLRAQEAPGQA,0.1
